According to patent US20230049152A1 (Genentech, published 2023):
Where a chain is given by its changes, count along the chain named. One block for each binder: values may come before it.

Columns and labels:
human ACKR4 = target: T1, human ACKR4 (human, UniProt Q9NPB9 1-350); test: flow cytometry, HEK293 with N-term FLAG-tagged human ACKR4
T1 construct: whole, on cells; transiently expressed on HEK293 cells
T1 sequence (looked up): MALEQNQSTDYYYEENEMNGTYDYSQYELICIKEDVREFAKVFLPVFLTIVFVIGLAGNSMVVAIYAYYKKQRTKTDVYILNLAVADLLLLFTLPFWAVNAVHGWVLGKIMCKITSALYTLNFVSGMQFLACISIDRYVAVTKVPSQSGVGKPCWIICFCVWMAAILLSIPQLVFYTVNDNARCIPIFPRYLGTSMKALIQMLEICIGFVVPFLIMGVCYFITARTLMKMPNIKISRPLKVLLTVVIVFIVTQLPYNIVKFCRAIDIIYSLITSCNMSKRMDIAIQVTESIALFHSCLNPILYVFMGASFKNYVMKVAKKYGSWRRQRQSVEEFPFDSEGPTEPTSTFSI
Description: (§1) FIGS. 4A-4F depicts the binding data of hu.Ab3.H1L1 (FIG. 4A), hu.Ab4.H1L1 (FIG. 4B), and hu.Ab5.H1L1 (FIG. 4C), as well as the commercial anti-CCR8 mAbs murine anti-human CCR8 mAb 433H (BD Biosciences) (FIG. 4D), and murine anti-human CCR8 mAb L263G8 (Biolegend) (FIG. 4E), and the humanized anti-human Yoshida anti-CCR8 mAb (FIG. 4F), to HEK293 cells that were transiently transfected with N-term FLAG-tagged plasmids encoding for human GPCRs (CCR2, CCR3, CCR4, CCR5, CCR8, CXCR4, ACKR2, and ACKR4), hCCR8 constructs, or with a mock construct using transIT X2 (reagent:DNA=3:1).
(§2) To confirm the selectivity to CCR8, the binding of hu.Ab3.H1L1, hu.Ab4.H1L1, and hu.Ab5.H1L1, as well as the Yoshida humanized anti-human CCR8, murine anti-human CCR8 mAb L263G8 (Biolegend, Commercial Ab) and murine anti-human CCR8 mAb 433H (BD Biosciences, Commercial Ab), were characterized by flow cytometry on HEK293 cells that were transiently transfected with plasmids encoding for FLAG-tagged other related human GPCRs (CCR2-5, CXCR4, ACKR2, and ACKR4). Cell surface expression of each GPCR was confirmed by staining with an anti-FLAG antibody control. […]

human CCR8 [1] = target: T2, human CCR8 (human, UniProt P51685 1-355); test: cell-based or functional assay
human ACKR2 = target: T3, human ACKR2 (human, UniProt O00590 1-384); test: flow cytometry, HEK293 with N-term FLAG-tagged human ACKR2
T3 construct: whole, on cells; transiently expressed on HEK293 cells
T3 sequence (looked up): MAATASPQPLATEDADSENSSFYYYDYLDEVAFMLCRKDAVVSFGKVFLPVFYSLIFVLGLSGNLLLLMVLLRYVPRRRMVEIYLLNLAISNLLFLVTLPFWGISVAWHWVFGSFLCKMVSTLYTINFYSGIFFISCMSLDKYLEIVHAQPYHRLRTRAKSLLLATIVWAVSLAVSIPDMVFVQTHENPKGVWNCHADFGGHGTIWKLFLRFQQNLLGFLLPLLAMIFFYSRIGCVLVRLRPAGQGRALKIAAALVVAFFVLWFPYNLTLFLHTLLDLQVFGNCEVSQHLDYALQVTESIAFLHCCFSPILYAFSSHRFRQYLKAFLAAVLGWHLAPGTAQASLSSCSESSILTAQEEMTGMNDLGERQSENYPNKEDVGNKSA
Description: as §1, §2

hCCR8 D2A = target: T4, hCCR8 D2A (human, UniProt P51685 1-355); test: flow cytometry, HEK293 transfected with hCCR8 D2A with C-terminal FLAG
T4 construct: alanine point mutant on transfected HEK 293 cells

human CCR8 [2] = target: T2, human CCR8; test: radioligand competition, 125I-labelled IgG versus unlabelled IgG on CHO cells stably expressing human CCR8
Method: Cell-based affinity measurements were performed using radiolabeled IgGs and CHO cell lines stably expressing human or cyno CCR8 for hu.Ab5.H13L1 and hu.Ab4.H12L3.
Briefly, stable CHO cells expressing human or cyno CCR8 were seeded in cold binding buffer (Opti-MEM+2% FBS+50 mM HEPES, pH 7.2+0.1% Sodium Azide) at 50,000 cells per well. A fixed concentration of ¹²⁵I-anti-CCR8 radiolabeled using the NEX244 Iodogen method (Perkin Elmer) was mixed with serially diluted anti-CCR8 antibodies starting at 20 nM or 50 nM. The antibody mixture was added to the cells and incubated at room temperature for 12 hours under gentle agitation. The cells and antibodies were then transferred to Millipore multiscreen filter plates. The filter plates were washed 4 times with 250 μL of cold binding buffer and dried for at least 30 minutes and the filters were punched into 5 mL polystyrene tubes. The radioactivity was measured using a Perkin Elmer Wallac Wizard 2470 Gamma Counter set at 1 count per minute with 0.8 counting efficiency. The data were fitted using the heterologous one site-fit Ki competitive binding model in GraphPad Prism.

D14A = target: T5, D14A; test: flow cytometry, HEK293 transfected with hCCR8 D14A with C-terminal FLAG; sheet prints [huCCR8]=0.02 ug/ml
T5 construct: single alanine mutant of hCCR8; also called hCCR8 D14A
T5 receptor chain: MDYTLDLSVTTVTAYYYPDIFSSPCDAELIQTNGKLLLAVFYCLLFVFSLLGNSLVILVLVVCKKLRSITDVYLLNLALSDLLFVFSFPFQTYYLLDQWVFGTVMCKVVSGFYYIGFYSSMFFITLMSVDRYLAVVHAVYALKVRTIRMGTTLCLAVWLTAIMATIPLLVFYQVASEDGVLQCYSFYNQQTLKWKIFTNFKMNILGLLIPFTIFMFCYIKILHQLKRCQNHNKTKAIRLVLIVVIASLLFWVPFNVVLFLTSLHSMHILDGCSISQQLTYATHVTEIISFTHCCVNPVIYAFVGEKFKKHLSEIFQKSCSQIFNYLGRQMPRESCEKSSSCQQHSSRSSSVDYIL

human CCR8 [3] = target: T2, human CCR8; test: cell-based or functional assay; remark: listed apart in the source

binding result (human ACKR4): no binding (tested: 5 ug/ml)
ADCC EC50, NK-92_F158 effector cells, calcein release (human CCR8 [1]): 0.02 nM
binding result (human ACKR2): no binding (tested: 5 ug/ml)
B1: hu.Ab5.H1L1 (antibody, human IgG1, kappa)
heavy: not shown
light: DIQVTQSPSSLSASVGDRVTITCQASENIANALAWYQQKPGKPPKFLIYGASNLASGVPSRFSGSGSGTDFTFTISSLQPEDIATYYCQQAYYGNSFVEGTFGGGTKVEIKRTVAAPSVFIFPPSDEQLKSGTASVVCLLNNFYPREAKVQWKVDNALQSGNSQESVTEQDSKDSTYSLSSTLTLSKADYEKHKVYACEVTHQGLSSPVTKSFNRGEC

binding result (hCCR8 D2A): no binding (tested: 0.02 ug/ml)
Kd (human CCR8 [2]): 0.004 nM
binding result (D14A): binds
B2: hu.Ab5.H13L1 (antibody, human IgG1, kappa)
heavy: not shown
light: B1 light
notes: fucosylated human IgG1; also called Ab5 variant

binding result (human ACKR4): no binding (tested: 5 ug/ml)
ADCC EC50, NK-92_F158 effector cells, calcein release (human CCR8 [1]): 0.08 nM
binding result (human ACKR2): no binding (tested: 5 ug/ml)
B3: hu.Ab4.H1L1 (antibody, human IgG1, kappa)
heavy: not shown
light: DYQMTQSPSSLSASVGDRVTITCQASQSISSYLSWYQQKPGKRPKLLIYKASTLASGVPSRFSGSGSGTDFTLTISSLQPEDFATYYCQQGYTSSNIDNIFGGGTKVEIKRTVAAPSVFIFPPSDEQLKSGTASVVCLLNNFYPREAKVQWKVDNALQSGNSQESVTEQDSKDSTYSLSSTLTLSKADYEKHKVYACEVTHQGLSSPVTKSFNRGEC
notes: also called hu.Ab4.H1Ll

Ligand Blocking Activity IC50, Ca2+ influx (human CCR8 [3]): 57.9 nM
Kd (human CCR8 [2]): 0.0284 nM
B4: hu.Ab4.H12L3 (antibody, human IgG1, kappa)
heavy: not shown
light: B3 light with R43A
notes: fucosylated human IgG1; also called huCCR8-Ab4.H12L3.hIgG1; Ab4 variant
